Kd data for 3 substances are collected here from doi:10.1101/2023.07.12.548668.

For this data set, the target named is XLF (UniProt Q9H9Q4). As to the kind of experiment: NMR titration (2D lineshape, TITAN). Conditions: NMR buffer (composition, salt and pH not in material); 800 MHz, 298 K stated for relaxation measurements; EMSA buffer not given.
Sequence of XLF (Q9H9Q4 whole entry): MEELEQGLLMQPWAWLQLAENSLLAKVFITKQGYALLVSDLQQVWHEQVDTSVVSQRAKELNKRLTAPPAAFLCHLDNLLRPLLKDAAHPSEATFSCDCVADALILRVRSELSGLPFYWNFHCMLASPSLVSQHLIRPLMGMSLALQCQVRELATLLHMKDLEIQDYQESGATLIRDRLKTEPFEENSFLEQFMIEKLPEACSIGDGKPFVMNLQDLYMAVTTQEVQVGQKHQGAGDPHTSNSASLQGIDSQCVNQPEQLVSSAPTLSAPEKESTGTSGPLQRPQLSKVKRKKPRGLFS
With 15mer DNA, the Kd – broadly, the concentration at which binding is half-saturated – is 141 µM.

In the case of 18mer DNA, the Kd is 33.7 µM.

In the case of 21mer DNA, the Kd was 16.2 µM.
